Laboratory results taken from patent publication US20120284877.
Numbering of substitutions follows the chain as printed.

Key:
Assay in all cases: cell_activity
Conditions in all cases: A. thaliana GUS recombination
[1] = biological target: T1, NLS-I-SceI C term mod #1-AlcR(1-60) (VC-SAH128-3, SAH126-1) (Saccharomyces cerevisiae / Aspergillus nidulans) (UniProt P03882)
T1 sequence: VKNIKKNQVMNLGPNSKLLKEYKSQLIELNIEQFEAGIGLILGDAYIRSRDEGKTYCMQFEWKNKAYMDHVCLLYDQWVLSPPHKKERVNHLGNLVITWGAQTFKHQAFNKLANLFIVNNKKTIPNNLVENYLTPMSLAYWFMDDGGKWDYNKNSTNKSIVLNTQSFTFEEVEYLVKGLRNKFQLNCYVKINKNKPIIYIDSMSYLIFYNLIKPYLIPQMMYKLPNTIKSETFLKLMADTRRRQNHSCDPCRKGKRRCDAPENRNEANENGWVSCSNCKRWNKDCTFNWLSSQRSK

[2] = biological target: T2, NLS-I-SceI C term mod #2-AlcR(1-60) (VC-SAH129-1, SAH127-1) (Saccharomyces cerevisiae / Aspergillus nidulans) (UniProt P03882)
T2 sequence: T1 sequence with T227A, K229A, S230N, E231Q, T232A

[3] = biological target: T3, NLS-I-SceI-AlcR(1-60) (VC-SAH48-8, VC-SAH91-1) (Saccharomyces cerevisiae / Aspergillus nidulans) (UniProt P03882)
T3 sequence: T1 sequence with K229S

## AGCGGCCGCCTAGGGATCCGACAGGTTACGGGGCGGCGACCTCGCGGGTTTTCGCTATTTATGAAAATTTTCCGGTTTAAGGCGTTTCCGTTCTTCTTCGTCATAACTTAATGTTTTTATTTAAAATACCCTCTGAAAAGAAAGGAAACGACAGGTGCATTACCCTGTTATCCCTAGCGGATCCGCACGTTATCCCTAGCGGATCCGCACGTTATCCCTAT (double strand) [combined target site VC-SAH55-22 (#55)]
[1]
  activity (% blue plants): 100
[2]
  activity (% blue plants): 76
[3]
  activity (% blue plants): 49
